Data from US20080050387A1 (published 2008).

T1: estrogen receptor α (ERα) (UniProt P03372 1-595)
T1 construct: also called VP16-ERα; ERcc
T1 sequence: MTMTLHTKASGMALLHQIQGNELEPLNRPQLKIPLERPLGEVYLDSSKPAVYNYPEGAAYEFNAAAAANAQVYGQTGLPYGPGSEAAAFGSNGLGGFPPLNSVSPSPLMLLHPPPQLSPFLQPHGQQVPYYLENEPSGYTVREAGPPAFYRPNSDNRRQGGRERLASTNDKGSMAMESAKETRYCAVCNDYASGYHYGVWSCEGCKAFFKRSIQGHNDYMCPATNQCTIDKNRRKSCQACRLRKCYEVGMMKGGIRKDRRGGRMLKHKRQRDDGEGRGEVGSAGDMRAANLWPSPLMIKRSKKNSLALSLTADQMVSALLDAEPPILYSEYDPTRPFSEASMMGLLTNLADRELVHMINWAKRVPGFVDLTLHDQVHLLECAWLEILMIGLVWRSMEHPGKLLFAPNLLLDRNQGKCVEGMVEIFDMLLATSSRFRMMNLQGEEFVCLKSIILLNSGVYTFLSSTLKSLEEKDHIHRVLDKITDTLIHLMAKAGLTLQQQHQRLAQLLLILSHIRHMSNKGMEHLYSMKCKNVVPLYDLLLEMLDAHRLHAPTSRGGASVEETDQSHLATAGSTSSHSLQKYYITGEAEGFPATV

T2: AR DBD-LBD (human, UniProt P10275 557-920)
T2 sequence: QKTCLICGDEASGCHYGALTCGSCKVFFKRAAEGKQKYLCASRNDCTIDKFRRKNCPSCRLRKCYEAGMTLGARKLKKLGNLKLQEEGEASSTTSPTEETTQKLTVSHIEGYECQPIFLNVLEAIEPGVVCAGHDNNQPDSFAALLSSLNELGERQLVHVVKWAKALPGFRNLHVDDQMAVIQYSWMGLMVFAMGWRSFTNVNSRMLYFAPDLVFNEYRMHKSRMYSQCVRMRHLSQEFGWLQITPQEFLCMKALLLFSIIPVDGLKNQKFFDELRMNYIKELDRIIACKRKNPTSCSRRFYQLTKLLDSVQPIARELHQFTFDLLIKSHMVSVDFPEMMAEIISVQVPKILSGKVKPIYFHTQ

T3: vitamin D receptor (VDR) (UniProt P11473 1-427)
T3 construct: also called VP16-VDR; VP 16-VDR
T3 sequence: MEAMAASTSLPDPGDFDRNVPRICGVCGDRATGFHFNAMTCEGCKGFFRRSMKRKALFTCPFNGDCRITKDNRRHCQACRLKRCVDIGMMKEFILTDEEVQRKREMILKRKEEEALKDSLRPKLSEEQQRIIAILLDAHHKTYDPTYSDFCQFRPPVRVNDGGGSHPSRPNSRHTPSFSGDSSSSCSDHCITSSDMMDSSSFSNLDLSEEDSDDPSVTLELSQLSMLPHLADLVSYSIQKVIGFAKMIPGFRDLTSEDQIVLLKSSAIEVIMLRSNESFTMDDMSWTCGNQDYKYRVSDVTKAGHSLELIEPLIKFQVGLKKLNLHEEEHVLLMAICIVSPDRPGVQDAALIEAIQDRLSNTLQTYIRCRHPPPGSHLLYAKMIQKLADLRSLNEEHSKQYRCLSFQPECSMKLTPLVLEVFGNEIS

T4: AR N-terminus, full length ARN (ARN1-556) (human, UniProt P10275 1-557)
T4 sequence: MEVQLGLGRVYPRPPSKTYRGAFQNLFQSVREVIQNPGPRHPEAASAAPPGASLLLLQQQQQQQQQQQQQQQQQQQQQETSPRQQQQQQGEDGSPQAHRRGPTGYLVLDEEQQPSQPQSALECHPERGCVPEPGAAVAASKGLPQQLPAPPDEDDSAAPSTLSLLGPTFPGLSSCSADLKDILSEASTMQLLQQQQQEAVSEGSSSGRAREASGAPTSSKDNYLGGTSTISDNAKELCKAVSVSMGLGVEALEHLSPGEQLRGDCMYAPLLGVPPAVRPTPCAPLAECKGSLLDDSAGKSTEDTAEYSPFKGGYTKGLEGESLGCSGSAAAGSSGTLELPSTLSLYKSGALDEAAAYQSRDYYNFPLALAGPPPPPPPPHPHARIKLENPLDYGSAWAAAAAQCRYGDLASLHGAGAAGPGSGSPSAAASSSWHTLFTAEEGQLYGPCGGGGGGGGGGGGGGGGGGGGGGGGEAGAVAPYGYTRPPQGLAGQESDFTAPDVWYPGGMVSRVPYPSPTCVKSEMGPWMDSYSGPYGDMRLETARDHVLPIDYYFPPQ

T5: VP16-AR containing the residues 37 to 919 (human, UniProt P10275 37-920)
T5 construct: also called pCMX-VP16-AR; full length AR fused to VP16
T5 sequence: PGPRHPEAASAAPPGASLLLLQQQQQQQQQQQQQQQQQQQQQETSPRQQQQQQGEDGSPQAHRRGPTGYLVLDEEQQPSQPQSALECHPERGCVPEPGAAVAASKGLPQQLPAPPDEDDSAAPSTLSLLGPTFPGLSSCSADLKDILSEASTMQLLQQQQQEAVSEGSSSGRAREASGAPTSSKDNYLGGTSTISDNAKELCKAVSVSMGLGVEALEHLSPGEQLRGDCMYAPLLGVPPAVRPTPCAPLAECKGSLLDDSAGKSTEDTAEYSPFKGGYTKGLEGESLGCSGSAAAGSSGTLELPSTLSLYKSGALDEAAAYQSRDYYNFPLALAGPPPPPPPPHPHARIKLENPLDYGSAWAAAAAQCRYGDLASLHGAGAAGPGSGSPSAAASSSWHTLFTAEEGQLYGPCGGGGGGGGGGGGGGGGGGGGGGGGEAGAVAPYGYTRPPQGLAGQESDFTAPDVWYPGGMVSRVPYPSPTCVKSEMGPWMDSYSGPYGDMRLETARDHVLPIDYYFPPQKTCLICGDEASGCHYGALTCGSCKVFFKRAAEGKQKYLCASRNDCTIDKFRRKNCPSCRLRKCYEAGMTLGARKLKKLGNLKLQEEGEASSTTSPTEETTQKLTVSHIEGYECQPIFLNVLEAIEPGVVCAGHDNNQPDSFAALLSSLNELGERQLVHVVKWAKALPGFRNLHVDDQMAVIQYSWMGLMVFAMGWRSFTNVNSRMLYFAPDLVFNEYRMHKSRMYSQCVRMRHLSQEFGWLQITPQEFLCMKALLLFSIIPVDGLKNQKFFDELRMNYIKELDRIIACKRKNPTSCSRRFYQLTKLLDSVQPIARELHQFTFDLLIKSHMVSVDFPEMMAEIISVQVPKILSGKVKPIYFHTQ

T6: ARA67 clone of the CytoTrap screen, amino acids 20-585 of PAT1 (pMyr-ARA67) (Homo sapiens, UniProt Q92624 20-585)
T6 construct: The clone matched the DNA encoding aa 20-585 of PAT1 at 99.6% identity; also called pMyr-ARA67/PAT1
T6 sequence: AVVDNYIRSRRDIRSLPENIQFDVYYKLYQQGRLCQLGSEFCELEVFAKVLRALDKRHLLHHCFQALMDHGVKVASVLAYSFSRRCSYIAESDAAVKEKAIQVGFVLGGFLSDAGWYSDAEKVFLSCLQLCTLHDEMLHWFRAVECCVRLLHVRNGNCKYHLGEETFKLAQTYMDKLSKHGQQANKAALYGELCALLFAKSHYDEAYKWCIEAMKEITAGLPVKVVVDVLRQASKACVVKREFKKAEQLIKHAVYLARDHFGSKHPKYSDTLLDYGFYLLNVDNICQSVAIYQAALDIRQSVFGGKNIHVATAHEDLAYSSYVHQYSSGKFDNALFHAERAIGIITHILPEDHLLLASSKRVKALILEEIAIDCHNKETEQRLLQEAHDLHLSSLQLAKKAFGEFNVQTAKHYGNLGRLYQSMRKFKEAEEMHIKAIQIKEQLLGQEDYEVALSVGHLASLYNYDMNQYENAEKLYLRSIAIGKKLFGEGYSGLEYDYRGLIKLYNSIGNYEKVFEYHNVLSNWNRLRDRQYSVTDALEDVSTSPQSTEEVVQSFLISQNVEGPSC

B1: f-hRad9, fragment of hRad9 isolated from yeast (aa 327-391) (other)
chain: LSPGPQPPKSPGPHSEEEDEAEPSTVPGTPPPKKFRSLFFGSILAPVRSPQGPSPVLAEDSEGEG
B2: human checkpoint protein hRad9, full length (other)
chain: MKCLVTGGNVKVLGKAVHSLSRIGDELYLEPLEDGLSLRTVNSSRSAYACFLFAPLFFQQYQAATPGQDLLRCKILMKSFLSVFRSLAMLEKTVEKCCISLNGRSSRLVVQLHCKFGVRKTHNLSFQDCESLQAVFDPASCPHMLRAPARVLGEAVLPFSPALAEVTLGIGRGRRVILRSYHEEEADSTAKAMVTEMCLGEEDFQQLQAQEGVAITFCLKEFRGLLSFAESANLNLSIHFDAPGRPAIFTIKDSLLDGHFVLATLSDTDSHSQDLGSPERHQPVPQLQAHSTPHPDDFANDDIDSYMIAMETTIGNEGSRVLPSISLSPGPQPPKSPGPHSEEEDEAEPSTVPGTPPPKKFRSLFFGSILAPVRSPQGPSPVLAEDSEGEG
notes: Used as GST-hRad9 on beads, as GAL4 DBD fusion (mammalian two-hybrid), as Flag-hRad9 in 293T cells and as endogenous hRad9 of CWR22R cells; also called FL-hRad9; GST-hRad9
B3: AR DNA-binding domain (AR DBD) (receptor)
chain: KTCLICGDEASGCHYGALTCGSCKVFFKRAAEGKQKYLCASRNDCTIDKFRRKNCPSCRLRKCYEAG
notes: also called GAL4-AR-DBD
B4: testicular receptor 2 (TR2) (receptor)
chain: MATIEEIAHQIIEQQMGEIVTEQQTGQKIQIVTALDHNTQGKQFILTNHDGSTPSKVILARQDSTPGKVFLTTPDAAGVNQLFFTTPDLSAQHLQLLTDNSPDQGPNKVFDLCVVCGDKASGRHYGAVTCEGCKGFFKRSIRKNLVYSCRGSKDCIINKHHRNRCQYCRLQRCIAFGMKQDSVQCERKPIEVSREKSSNCAASTEKIYIRKDLRSPLTATPTFVTDSESTRSTGLLDSGMFMNIHPSGVKTESAVLMTSDKAESCQGDLSTLANVVTSLANLGKTKDLSQNSNEMSMIESLSNDDTSLCEFQEMQTNGDVSRAFDTLAKALNPGESTACQSSVAGMEGSVHLITGDSSINYTEKEGPLLSDSHVAFRLTMPSPMPEYLNVHYIGESASRLLFLSMHWALSIPSFQALGQENSISLVKAYWNELFTLGLAQCWQVMNVATILATFVNCLHNSLQQDAKVIAALIHFTRRAITDL
notes: hSos fusion (pSos-TR2) in yeast; also called pSos-TR2

Key:
[1] = biological target: T1, estrogen receptor α (ERα); assay: mammalian two-hybrid in PC-3 cells, pM-f-hRad9 + VP16-ERα, in the presence of estrogen
[2] = biological target: B3; assay: yeast two-hybrid (AH109), GAL4-AR-DBD + f-hRad9 fused to an activation domain, 10 nM DHT
AR DBD-LBD = biological target: T2, AR DBD-LBD; assay: cell-based or functional assay
vitamin D receptor (VDR) = biological target: T3, vitamin D receptor (VDR); assay: mammalian two-hybrid in PC-3 cells, pM-f-hRad9 + VP16-VDR
[3] = biological target: T4, AR N-terminus, full length ARN …; assay: GST pull-down: GST-hRad9 with 35S-labeled AR domains
[4] = biological target: T5, VP16-AR containing the residues 37 to …; assay: mammalian two-hybrid in PC-3 cells, GAL4 DBD-FL-hRad9 + VP16-AR; inhibited by hydroxyflutamide
[5] = biological target: B2; assay: GST pull-down: GST-hRad9 with 35S-labeled AR domains
[6] = biological target: T6, ARA67 clone of the CytoTrap screen, …; assay: CytoTrap Sos yeast two-hybrid, growth of cdc25H on SD/Gal(-LU) at 37° C

For B1, the binding result [1] was “no binding”, the binding result [2] was “no binding” and the “reporter activity (yeast two-hybrid, liquid β-gal assay, 10 nM DHT)” value (AR DBD-LBD) was 10 fold. B1: no binding (vitamin D receptor (VDR)).

B2: no binding [3]; binds [4].

B3: no binding [5].

B4: no binding [6].
